One series addresses PDGFRβ (recombinant) (UniProt P09619 33-532). In words: SPR. (Surface plasmon resonance follows binding to a sensor surface in real time, without labels.)
The target in series [1] is PDGFRα extracellular domain (Homo sapiens, UniProt P16234 24-524). The series can be described thus: SPR.
Sequence of PDGFRα extracellular domain (P16234 24-524): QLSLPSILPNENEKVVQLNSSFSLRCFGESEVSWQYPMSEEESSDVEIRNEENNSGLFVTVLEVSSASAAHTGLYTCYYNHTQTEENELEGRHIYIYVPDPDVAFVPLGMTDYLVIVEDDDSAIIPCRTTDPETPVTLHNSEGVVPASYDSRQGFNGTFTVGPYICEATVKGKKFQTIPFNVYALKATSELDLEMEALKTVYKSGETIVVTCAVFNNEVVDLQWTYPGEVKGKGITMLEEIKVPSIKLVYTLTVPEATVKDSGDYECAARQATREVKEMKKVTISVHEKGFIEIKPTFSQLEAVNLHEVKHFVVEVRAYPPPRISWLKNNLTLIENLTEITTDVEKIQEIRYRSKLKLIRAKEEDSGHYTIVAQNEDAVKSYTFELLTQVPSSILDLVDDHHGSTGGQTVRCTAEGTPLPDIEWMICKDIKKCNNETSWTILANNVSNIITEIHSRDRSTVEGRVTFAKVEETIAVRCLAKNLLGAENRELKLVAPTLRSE

Sequence of PDGFRβ (recombinant) (P09619 33-532): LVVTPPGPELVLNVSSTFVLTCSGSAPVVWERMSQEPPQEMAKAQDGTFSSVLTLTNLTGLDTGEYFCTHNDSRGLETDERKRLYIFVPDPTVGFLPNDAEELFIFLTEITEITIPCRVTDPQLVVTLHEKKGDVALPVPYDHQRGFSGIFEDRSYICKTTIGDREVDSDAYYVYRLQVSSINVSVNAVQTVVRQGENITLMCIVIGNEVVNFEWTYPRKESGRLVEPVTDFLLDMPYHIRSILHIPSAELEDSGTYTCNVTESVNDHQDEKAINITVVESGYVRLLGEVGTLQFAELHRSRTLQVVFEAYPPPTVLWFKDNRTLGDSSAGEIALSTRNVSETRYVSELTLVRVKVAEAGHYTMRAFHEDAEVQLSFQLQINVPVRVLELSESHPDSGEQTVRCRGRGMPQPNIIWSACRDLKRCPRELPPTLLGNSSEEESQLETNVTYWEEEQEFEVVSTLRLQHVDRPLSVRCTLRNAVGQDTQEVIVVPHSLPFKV

B1: PDR3 (structured_RNA)
RNA: GGGAGAGCGGAAGCGUGCUGGGCCUGCUCUUUAAUAAACCCACUUUCGAACAUCAGCGUAUGUCCAUAACCCAGAGGUGAUGGAUCCCCC
modifications: 2'-F pyrimidines (2'F-U, 2'F-C)
By Kd is commonly meant the equilibrium constant for the complex coming apart. A lower Kd goes with tighter binding. In the case of B1, in the series with PDGFRβ (recombinant), the binding result is given as “no binding”. In series [1], this molecule showed a Kd of 0.25 nM.

The values are drawn from article PMC6307106.
